Earlier results as cited in patent US7630838B2, “Method for identifying agents that interact with beta-site APP cleaving enzyme (BACE)” (American Home Products Corporation, priority 2000, dated 2009).
Non-standard residues stand in square brackets, D forms with d. No end group written: not given here. Sta = CC(C)C[C@H](N)[C@@H](O)CC(=O)O

Target: β-secretase enzyme (Homo sapiens, UniProt P56817)
Conditions: stated in words only; no number given

β-secretase enzyme, sequence (P56817 46-501): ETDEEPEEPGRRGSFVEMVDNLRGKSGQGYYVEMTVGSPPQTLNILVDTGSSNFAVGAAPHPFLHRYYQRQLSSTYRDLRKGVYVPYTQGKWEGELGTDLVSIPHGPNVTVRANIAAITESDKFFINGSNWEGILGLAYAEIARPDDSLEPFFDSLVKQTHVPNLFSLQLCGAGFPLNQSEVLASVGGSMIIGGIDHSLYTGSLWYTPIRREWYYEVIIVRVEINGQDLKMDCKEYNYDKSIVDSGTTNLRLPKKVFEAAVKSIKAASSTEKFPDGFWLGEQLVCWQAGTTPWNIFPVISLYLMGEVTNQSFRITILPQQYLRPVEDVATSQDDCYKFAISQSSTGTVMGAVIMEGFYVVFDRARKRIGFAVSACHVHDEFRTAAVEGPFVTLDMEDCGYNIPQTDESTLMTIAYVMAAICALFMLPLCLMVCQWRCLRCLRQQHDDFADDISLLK

**Q.** Which “inhibit the β-secretase enzyme (efficiency)” value does the source give for “SER-GLU-VAL-ASN-Sta-VAL-ALA-GLU-PHE (SEVN[Sta]VAEF) [statine based inhibitor, based on the APP Swedish mutation]” here?
**A.** nanomolar efficiency
